Measured values: US20230087785A1, “Leucine-Rich Repeat Kinase 2 Allosteric Modulators” (VIB VZW, priority 2020, published 2023)
Substitutions are numbered along the chain they refer to. One block for each molecule: values may come before it.

What was measured:
[1] = biological target: T1, LRRK2 RocCOR domain construct (human, UniProt Q5S007 1334-1840); experiment: ELISA, antigen coated on the plate, purified Nb detected via its EPEA tag
T1 construct: A second construct (residues 1293-1840, N-terminal His6-MBP) was used in certain screening experiments; not shown: N-terminal Twin-Strep-tag; C-terminal His10-tag
T1 sequence: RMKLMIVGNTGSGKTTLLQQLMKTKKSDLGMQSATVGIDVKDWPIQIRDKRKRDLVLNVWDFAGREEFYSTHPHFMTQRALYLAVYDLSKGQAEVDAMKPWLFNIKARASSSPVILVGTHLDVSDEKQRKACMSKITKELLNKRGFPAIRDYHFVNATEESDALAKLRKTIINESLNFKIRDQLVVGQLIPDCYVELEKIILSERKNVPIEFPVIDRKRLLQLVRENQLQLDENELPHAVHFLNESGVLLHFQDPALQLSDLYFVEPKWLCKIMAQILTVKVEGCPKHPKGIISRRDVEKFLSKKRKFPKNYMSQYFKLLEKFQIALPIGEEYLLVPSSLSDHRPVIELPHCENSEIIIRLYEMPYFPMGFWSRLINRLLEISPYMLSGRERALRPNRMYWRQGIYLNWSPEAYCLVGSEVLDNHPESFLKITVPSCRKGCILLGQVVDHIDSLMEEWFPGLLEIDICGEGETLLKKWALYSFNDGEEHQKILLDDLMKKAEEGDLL
Description: (§1) We recombinantly expressed and purified the RocCOR, Roc, COR-B and kinase-WD40 (K-WD40) domain constructs of LRRK2 (FIG. 7). Subsequently, we performed an ELISA in which all these domain constructs were coated in parallel next to each other in the same ELISA plate, and where we subsequently detected binding of the 42 purified Nbs. […] To enrich in Nbs directed against the Roc domain we specifically included a selection step with either Roc-GTPγS or Roc-GDP.

[2] = biological target: T2, LRRK2 Roc domain construct (human, UniProt Q5S007 1329-1520); experiment: as above
T2 construct: not shown: N-terminal His6-tag of pET-28a
T2 sequence: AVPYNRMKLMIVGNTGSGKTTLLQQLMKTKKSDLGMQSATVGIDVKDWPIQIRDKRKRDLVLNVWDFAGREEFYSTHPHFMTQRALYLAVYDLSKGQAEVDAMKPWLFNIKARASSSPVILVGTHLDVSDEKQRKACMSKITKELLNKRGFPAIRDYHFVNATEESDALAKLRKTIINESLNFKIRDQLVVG
Description: as §1

[3] = biological target: T3, LRRK2 COR-B construct (C-terminal part of the COR domain), His6-MBP tagged (human, UniProt Q5S007 1672-1840); experiment: as above
T3 construct: also called (MBP-)COR-B; not shown: N-terminal His6-MBP-tag of pDEST-566
Description: as §1

[4] = biological target: T4, LRRK2(G2019S) (Homo sapiens, UniProt Q5S007, G2019S/M2397T/R50H); experiment: In cellulo phospho-Rab / LRRK2 autophosphorylation assay in HEK293T cells; type: cell-based; set-up: key to Functional Group (see FIG. 2d): Group 1: group 1: Nbs that inhibit both LRRK2 autophosphorylation and Rab10 phosphorylation in cells; Group 2: group 2: Nbs that inhibit only Rab10 phosphorylation; Group 3: group 3: Nbs that activate LRRK2 kinase activity; Group 4: group 4: Nbs that have no consistent/clear effect on LRRK2 kinase activity; settings: for LRRK2 autophosphorylation at position S1292 / influence on LRRK2 kinase activity compared to the controls / Rab10 phosphorylation at position T72: HEK 293T cells co-expressing LRRK2(G2019S), Rab29 and Nb-GFP; for influence on LRRK2 kinase activity compared to the controls: Western blot; for Functional Group (see FIG. 2d): classification by effect on in cellulo LRRK2(G2019S) kinase activity; for Rab10 phosphorylation at position T72: endogenous Rab10
T4 construct: SF tag (FLAG + Twin-Strep); expressed in transfected cells; host or cells: HEK 293T
T4 sequence (Q5S007 whole entry R50H/G2019S/M2397T): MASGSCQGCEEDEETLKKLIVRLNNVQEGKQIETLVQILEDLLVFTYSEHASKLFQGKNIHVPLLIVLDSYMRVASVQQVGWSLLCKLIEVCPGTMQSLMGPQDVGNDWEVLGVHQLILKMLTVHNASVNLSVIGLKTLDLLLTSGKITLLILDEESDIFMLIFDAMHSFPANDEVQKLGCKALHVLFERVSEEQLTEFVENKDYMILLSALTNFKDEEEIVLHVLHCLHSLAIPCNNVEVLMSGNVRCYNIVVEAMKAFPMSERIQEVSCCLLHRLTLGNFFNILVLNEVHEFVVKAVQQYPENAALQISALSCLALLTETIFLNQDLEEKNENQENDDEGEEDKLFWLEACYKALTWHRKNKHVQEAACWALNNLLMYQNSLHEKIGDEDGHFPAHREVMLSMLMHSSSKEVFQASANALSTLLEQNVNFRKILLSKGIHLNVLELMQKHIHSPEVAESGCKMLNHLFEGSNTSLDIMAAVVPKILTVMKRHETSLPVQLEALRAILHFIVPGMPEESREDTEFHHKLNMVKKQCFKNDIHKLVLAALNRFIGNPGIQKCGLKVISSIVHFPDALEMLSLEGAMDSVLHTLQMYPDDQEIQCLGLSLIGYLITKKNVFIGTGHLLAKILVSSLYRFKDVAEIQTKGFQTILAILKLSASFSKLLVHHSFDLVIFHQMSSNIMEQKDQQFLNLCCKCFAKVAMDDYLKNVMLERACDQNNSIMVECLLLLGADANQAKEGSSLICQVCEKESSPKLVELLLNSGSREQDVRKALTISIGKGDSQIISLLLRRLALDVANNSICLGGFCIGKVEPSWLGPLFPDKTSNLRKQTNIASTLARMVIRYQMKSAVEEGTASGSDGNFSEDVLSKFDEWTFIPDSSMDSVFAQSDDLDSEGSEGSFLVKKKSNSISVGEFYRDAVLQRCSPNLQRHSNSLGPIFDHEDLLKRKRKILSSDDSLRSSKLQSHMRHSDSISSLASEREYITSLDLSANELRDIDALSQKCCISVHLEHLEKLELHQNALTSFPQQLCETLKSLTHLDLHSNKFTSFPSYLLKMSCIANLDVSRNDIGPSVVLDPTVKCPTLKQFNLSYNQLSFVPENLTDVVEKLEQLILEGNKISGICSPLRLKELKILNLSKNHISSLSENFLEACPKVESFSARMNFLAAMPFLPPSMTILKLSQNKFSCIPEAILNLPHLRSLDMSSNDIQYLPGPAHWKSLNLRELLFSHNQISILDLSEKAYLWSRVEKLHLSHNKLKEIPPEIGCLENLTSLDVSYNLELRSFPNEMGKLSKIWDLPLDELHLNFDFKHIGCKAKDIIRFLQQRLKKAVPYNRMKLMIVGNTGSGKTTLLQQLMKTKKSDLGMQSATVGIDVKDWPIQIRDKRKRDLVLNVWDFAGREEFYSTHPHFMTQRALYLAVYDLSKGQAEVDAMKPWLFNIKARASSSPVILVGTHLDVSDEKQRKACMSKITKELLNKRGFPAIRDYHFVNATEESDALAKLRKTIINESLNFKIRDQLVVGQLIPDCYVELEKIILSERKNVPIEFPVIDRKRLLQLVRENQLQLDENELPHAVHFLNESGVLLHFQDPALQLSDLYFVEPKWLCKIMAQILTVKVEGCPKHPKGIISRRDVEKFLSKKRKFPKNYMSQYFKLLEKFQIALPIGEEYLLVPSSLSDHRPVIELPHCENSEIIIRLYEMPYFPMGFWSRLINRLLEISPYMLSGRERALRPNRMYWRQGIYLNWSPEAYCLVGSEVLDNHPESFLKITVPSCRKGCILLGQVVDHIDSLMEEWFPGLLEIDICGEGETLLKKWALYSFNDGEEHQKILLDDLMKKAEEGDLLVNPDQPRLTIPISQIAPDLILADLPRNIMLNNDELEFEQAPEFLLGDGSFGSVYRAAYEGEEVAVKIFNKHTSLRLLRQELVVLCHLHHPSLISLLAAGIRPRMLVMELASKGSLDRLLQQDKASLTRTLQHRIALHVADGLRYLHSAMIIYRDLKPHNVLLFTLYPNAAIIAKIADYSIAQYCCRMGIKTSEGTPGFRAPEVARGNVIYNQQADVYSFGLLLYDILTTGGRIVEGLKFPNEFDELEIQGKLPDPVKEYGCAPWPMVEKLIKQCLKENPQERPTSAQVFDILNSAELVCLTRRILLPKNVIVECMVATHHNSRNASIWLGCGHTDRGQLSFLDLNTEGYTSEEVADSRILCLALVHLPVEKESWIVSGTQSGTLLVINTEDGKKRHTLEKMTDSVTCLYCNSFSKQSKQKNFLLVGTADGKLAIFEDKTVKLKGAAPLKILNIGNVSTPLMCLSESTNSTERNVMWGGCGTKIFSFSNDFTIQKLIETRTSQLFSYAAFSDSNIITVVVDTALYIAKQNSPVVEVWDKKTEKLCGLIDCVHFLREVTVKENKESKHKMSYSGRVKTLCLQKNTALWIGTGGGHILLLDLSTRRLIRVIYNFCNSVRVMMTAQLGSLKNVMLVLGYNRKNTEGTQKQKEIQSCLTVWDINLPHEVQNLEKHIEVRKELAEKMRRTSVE
Description: (FIGS. 2A-2C) LRRK2(G2019S) and its effector Rab29 were overexpressed together with GFP-fused Nbs (“Fluobody”) in HEK293T cells. A negative control, where no Nb is overexpressed (“No Nb”) is also included. […] In rows labeled “pLRRK2”, LRRK2 pS1292 levels are determined by Western Blot using a site-specific anti-pLRRK2(pS1292) antibody (Abcam, ab203181) (shown at different times of development). In the rows labeled “pRAB10”, endogenous pT72-Rab10 levels are determined by Western Blot using the MJFF/Abcam antibody MJF-R21 (Abcam, ab230261) (shown at different times of development). The three lower rows contain controls of LRRK2 (rat anti-LRRK2, 24D8), Fluobody (rat anti-GFP) and Rab10 (rabbit anti-Rab10) expression levels. (FIG. 2D) Based on the results of panels (FIGS. 2A-2C) the Nbs can be divided into 4 functional groups, with group 1: Nbs that inhibit both LRRK2 autophosphorylation and Rab10 phosphorylation in cells; group 2: Nbs that inhibit only Rab10 phosphorylation; group 3: Nbs that activate LRRK2 kinase activity; group 4: Nbs that have no consistent/clear effect on LRRK2 kinase activity.
To assess the influence of the Nbs on LRRK2 kinase activity we monitored two physiologically and disease relevant activities of LRRK2: phosphorylation of the endogenous substrate Rab10 at position T72 and LRRK2 autophosphorylation at position S1292 [25-30]. […] In our cellular assay we thus co-expressed LRRK2(G2019S), Rab29 and the different Nb-GFP fusions in HEK 293T cells (FIG. 2a-c).
HEK 293T cells were cultured in DMEM (supplemented with 10% Fetal Bovine Serum, […] L-Glutamine and 0.5% Pen/Strep). For the assay, the cells were seeded onto six-well plates and transfected at a confluency of 50-70% with the individual Nb-GFP expression constructs, SF-tagged LRRK2(G2019S) and FLAG-HA Rab29 using a self-made polyethylenimine (PEI)-based transfection reagent. After 48 hrs cells were lysed in lysis buffer [30 mM Tris-HCL (pH7.4), 150 mM NaCl, 0.5% Nonident-P40, complete protease inhibitor cocktail, phosphatase inhibitor cocktail II & III (all Sigma)]. Lysates were cleared by centrifugation at 10,000×g and adjusted to a protein concentration of 1 μg/μl in 1× Laemmli Buffer. Samples were subsequently subjected to SDS PAGE and Western Blot analysis to determine LRRK2 pS1292 and Rab10 T72 phosphorylation levels, as described below. Total LRRK2 and Rab10 levels were determined as a reference.
For western blot analysis, protein samples were separated by SDS-PAGE using NuPAGE 10% Bis-Tris gels (Invitrogen) and transferred onto PVDF membranes (Thermo Fisher). To allow simultaneous probing for LRRK2 on the one hand and Rab and the Nb-GFP fusions on the other hand, membranes were cut horizontally at the 140 kDa MW marker band. After blocking non-specific binding sites with 5% non-fat dry milk in TBST (1 h, RT) (25 mM Tris, pH 7.4, 150 mM NaCl, 0.1% Tween-20), membranes were incubated overnight at 4° C. with primary antibodies at dilutions specified below. Phospho-specific antibodies were diluted in TBST/5% BSA (Roth GmbH). Non-phospho-specific antibodies were diluted in TBST/5% non-fat dry milk powder (BioRad). Phospho-Rab10 levels were determined by the site-specific rabbit monoclonal antibody anti-pRAB10([…]) (Abcam, ab230261) and LRRK2 autophosphorylation was determined by the site-specific rabbit monoclonal antibody anti-pLRRK2(pS1292) (Abcam, ab203181), both at a dilution of 1:2,000. Total LRRK2 levels were determined by the in-house rat monoclonal antibody anti-pan-LRRK2 (clone 24D8; 1:10,000). Total Rab10 levels were determined by the rabbit monoclonal antibody anti-RAB10/ERP13424 (Abcam, ab181367) at a dilution of 1:5,000. Nb-GFP fusion proteins were detected using the rat monoclonal antibody anti-GFP (clone 3H9, ChromoTec) at a dilution of 1:2,000. For detection, goat anti-rat IgG or anti-rabbit IgG HRP-coupled secondary antibodies (Jackson ImmunoResearch) were used at a dilution of 1:15,000 in TBST/5% non-fat dry milk powder. […]

[5] = biological target: T5, endogenous LRRK2 (Mus musculus, UniProt Q5S006); experiment: Colocalization of GFP-Nbs with endogenous LRRK2 on zymosan-containing phagosomes in RAW264.7 cells; type: cell-based; settings: RAW264.7 cells transfected with GFP-Nbs, zymosan 30 mins, fixed cells
T5 construct: endogenous in cells; host or cells: RAW264.7
T5 sequence (Q5S006 whole entry): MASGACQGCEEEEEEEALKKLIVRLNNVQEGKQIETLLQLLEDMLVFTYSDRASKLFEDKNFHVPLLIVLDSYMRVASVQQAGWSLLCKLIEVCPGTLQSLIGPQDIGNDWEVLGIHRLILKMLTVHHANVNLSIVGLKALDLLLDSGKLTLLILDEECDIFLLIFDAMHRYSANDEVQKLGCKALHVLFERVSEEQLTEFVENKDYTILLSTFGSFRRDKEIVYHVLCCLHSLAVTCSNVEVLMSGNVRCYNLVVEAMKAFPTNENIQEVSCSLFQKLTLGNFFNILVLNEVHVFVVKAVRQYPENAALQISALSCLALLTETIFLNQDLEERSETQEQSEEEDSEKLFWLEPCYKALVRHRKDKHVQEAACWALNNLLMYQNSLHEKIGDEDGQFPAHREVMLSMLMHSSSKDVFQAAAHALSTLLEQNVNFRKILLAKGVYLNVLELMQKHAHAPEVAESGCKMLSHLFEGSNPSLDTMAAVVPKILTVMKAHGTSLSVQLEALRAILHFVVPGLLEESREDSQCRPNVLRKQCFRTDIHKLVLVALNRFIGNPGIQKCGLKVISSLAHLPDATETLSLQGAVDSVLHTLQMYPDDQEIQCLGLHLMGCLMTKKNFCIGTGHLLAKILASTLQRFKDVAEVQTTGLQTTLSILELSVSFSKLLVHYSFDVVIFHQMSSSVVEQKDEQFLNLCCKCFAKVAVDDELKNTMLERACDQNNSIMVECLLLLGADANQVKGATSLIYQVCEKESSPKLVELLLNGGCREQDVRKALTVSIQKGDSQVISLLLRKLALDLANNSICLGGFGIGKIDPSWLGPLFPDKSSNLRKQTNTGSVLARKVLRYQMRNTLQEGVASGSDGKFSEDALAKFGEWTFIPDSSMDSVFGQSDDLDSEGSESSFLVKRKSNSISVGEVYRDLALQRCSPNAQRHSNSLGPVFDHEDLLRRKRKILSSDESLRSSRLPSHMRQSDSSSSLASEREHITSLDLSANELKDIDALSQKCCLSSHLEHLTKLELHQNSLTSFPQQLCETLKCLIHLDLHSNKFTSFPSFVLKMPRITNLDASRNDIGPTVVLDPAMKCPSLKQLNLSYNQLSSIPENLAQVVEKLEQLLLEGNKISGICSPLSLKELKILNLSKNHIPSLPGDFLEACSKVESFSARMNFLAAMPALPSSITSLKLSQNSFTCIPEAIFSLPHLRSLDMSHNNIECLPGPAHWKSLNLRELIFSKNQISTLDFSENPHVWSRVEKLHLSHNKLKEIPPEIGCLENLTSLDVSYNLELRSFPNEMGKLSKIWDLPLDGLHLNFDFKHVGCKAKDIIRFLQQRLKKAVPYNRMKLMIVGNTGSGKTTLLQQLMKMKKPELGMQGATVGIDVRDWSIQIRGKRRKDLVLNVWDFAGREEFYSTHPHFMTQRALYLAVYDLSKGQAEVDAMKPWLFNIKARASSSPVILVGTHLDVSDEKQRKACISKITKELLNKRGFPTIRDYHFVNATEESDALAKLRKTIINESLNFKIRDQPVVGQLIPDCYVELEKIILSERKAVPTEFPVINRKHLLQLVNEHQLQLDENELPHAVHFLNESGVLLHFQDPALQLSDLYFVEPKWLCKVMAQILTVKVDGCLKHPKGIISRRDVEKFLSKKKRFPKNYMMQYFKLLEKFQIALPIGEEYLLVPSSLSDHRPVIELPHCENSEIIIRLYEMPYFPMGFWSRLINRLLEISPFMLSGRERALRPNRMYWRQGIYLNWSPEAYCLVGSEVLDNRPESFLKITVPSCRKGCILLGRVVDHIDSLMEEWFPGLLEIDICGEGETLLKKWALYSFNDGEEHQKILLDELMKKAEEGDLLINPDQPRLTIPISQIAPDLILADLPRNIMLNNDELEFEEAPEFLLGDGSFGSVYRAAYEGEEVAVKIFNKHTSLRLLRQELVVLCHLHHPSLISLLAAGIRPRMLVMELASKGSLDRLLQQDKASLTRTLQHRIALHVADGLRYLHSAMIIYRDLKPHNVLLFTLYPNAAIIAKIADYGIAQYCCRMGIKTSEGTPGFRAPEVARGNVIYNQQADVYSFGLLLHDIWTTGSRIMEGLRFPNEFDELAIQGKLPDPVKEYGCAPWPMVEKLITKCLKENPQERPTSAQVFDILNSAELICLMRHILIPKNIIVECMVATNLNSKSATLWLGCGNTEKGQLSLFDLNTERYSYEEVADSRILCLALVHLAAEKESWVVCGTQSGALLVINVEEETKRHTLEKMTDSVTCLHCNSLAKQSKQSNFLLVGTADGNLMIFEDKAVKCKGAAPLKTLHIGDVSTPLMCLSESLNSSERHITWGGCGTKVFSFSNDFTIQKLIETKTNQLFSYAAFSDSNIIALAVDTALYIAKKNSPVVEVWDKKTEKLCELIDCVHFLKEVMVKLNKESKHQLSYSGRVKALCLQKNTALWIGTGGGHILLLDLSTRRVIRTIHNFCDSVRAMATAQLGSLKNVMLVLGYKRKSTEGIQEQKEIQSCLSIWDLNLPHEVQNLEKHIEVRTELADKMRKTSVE
Description: RAW264.7 cells were transfected with GFP-fused Nbs and treated with Zymosan for 30 mins. Recruitment of LRRK2 and Nbs to the phagosomes was analyzed by immunofluorescence. FIG. 16A, images for Nb38, Nb22, Nb23, Nb40, No Nb, or Irrelevant (IRR) Nb treatments; FIG. 16B, images for Nb36, Nb42, Nb17, Nb39, Nb1, and Nb6 treatments. Scale bar=10 μm.
To test whether Nbs can trace and visualize endogenous LRRK2 in fixed cells, we generated green fluorescent protein (GFP)-Nb fusions (fluobodies) as described before. Recently, it was shown that LRRK2 is recruited to phagosomes upon induction of phagocytosis in immune cells. Therefore, RAW264.7 cells were transfected with these fluobodies and treated with killed yeast bioparticles “zymosan” to induce phagocytosis.
RAW264.7 cells (ATCC® SC-6003™) were transfected with peGFP-Nb constructs using JetOPTIMUS (Polyplus transfection) for 24 hrs and then stimulated with Zymosan particles (Sigma Aldrich) for 30 mins ([…]). Immunostaining for LRRK2 was performed as reported before. Briefly, cells fixed with 4% (w/v) paraformaldehyde for 30 min, followed by treatment with 100% EtOH at −20° C. Sampled were permeabilized with PBS/0.5% Triton X-100 and blocked with 3% BSA. Primary antibodies (rabbit anti-LRRK2, c41-2, Abcam and mouse anti-GFP, G6539, Sigma Aldrich) were diluted in PBS containing 3% BSA and 0.5% Triton X-100 and incubated overnight at 4° C. After three 5-min washes with PBS, secondary fluorescently labeled antibodies (anti-rabbit-Alexa fluor 568 and anti-mouse-Alexa fluor 488, Invitrogen) were added in a similar manner to primary antibodies and incubated for 1 hour at room temperature. Cells were washed twice with 1×PBS and mounted with Fluroshield antifade reagent with DAPI (SigmaAldrich). Images were acquired on Zeiss LSM800 confocal laser scanning microscope. Image analysis of z-scan was done using the Zeiss microscope software ZEN.

binding result [1]: no binding (tested: not given) | binding result [2]: no binding (tested: not given) | binding result [3]: no binding (tested: not given)
B5: Nb41 (CA14136) (VHH)
VHH: QVQLVESGGGLVQAGGSLRLSCEASVRTFSFYSMGWFRQAPGKEREFVAAIRWTAGSTSYADIVKGRFTISRDNGKNTVVLQMNSLEPEDTGVYYCAAQRGYLVEAASREYDYWGQGTQVTVSS

binding result [1]: no binding (tested: not given) | binding result [2]: no binding (tested: not given) | binding result [3]: no binding (tested: not given)
B6: Nb13 (CA13602) (VHH)
VHH: QVQLVESGGGLVQPGGSLRLSCAASGSGFSIYAMGWARQAPGRQRELVAAITSGGSTNYADSVKGRFTISRDNAKNTVYLQMNSLKPEDTAVYYCNADITVVAGSTYDYWGQGTQVTVSS

The remaining lines, values behind:

B1: Nb28 (CA13617) (VHH)
VHH: QVQLVESGGGLVQAGGSLRLSCAASGIIFHWYDMDWYRQAPGKQRELVATITTGGRADYADFVKGRFSISRDNAKTTVYLQMNSLKPEDTAVYYCSFQDHVLRRWGQGTQVTVSS
binding result [1]: no binding (tested: not given) | binding result [2]: no binding (tested: not given) | binding result [3]: no binding (tested: not given)

B2: Nb10 (CA13599) (VHH)
VHH: QVQLVESGGGLVQPGGSLRLSCAASGSIFSIYAMGWYRQAPGKQRELVAAITSGGDTNYADSVKGRFTISRDNAKNTVYLQMNSLKPEDTAVYYCNADHTPAGTFQTFDYWGQGTQVTVSS
binding result [1]: no binding (tested: not given) | binding result [2]: no binding (tested: not given) | binding result [3]: no binding (tested: not given)

B3: Nb36: LRRK2-specific Nanobody, SEQ ID NO: 7 (protein)
VHH: MAQVQLVESGGGLVQPGGSLRLSCAASGSIRSITTSAWFRQPPGKQRELVAGISSGTSTNYADSVKGRFTISRDNAKNTVYLQMNSLKPEDTAVYYCHVWISGTWYSGQGTQVTVSS
modifications: Nanobody CA14130
LRRK2 autophosphorylation at position S1292 [4]: inhibiting S1292 phosphorylation at a lesser extent | influence on LRRK2 kinase activity compared to the controls [4]: strongly decreased LRRK2 autophosphorylation and/or Rab10 phosphorylation | Functional Group (see FIG. 2d) [4]: Group 2 | Rab10 phosphorylation at position T72 [4]: inhibit Rab10 phosphorylation | colocalization with endogenous LRRK2 on phagosomes [5]: did not colocalize with endogenous LRRK2

B4: Nb38: LRRK2-specific Nanobody, SEQ ID NO: 8 (protein)
VHH: B3 VHH with T34A, F39Y, S58T, V99A, Y106I
modifications: Nanobody CA14133
LRRK2 autophosphorylation at position S1292 [4]: inhibiting S1292 phosphorylation at a lesser extent | influence on LRRK2 kinase activity compared to the controls [4]: strongly decreased LRRK2 autophosphorylation and/or Rab10 phosphorylation | Functional Group (see FIG. 2d) [4]: Group 2 | Rab10 phosphorylation at position T72 [4]: inhibit Rab10 phosphorylation | colocalization with endogenous LRRK2 on phagosomes [5]: clearly colocalized with LRRK2 on zymosan-containing phagosomes
